Test results taken from patent US12427210B2 (3B PHARMACEUTICALS GMBH, dated 2025).

B1: Hex-[Cys(tMeBn(LuDOTA-AET))-Pro-Pro-Thr-Gln-Phe-Cys]-OH (3BP-3624) (peptide)
peptide: CPPTQFC
modifications: N-terminal hexanoyl (Hex); Cys1 and Cys7 cyclised through tMeBn carrying LuDOTA-AET (lutetium complex); free C-terminal acid (-OH)
B2: Hex-[Cys(tMeBn(DOTA-PP))-Pro-Pro-Thr-Gln-Phe-Cys]-Asp-NH2 (3BP-3407) (peptide)
peptide: CPPTQFCD
modifications: N-terminal hexanoyl (Hex); Cys1 and Cys7 cyclised through tMeBn carrying DOTA-PP; C-terminal amide
B3: Hex-[Cys(tMeBn(InDOTA-PP))-Pro-Pro-Thr-Gln-Phe-Cys]-Asp-NH2 (3BP-3590) (peptide)
peptide: CPPTQFCD
modifications: N-terminal hexanoyl (Hex); Cys1 and Cys7 cyclised through tMeBn carrying InDOTA-PP (indium complex); C-terminal amide
B4: Hex-[Cys(tMeBn(GaDOTA-AET))-Pro-Pro-Thr-Gln-Phe-Cys]-OH (3BP-3949) (peptide)
peptide: CPPTQFC
modifications: N-terminal hexanoyl (Hex); Cys1 and Cys7 cyclised through tMeBn carrying GaDOTA-AET (gallium complex); free C-terminal acid (-OH)
B5: Hex-[Cys(tMeBn(GaDOTA-PP))-Pro-Pro-Thr-Gln-Phe-Cys]-Asp-NH2 (3BP-3592) (peptide)
peptide: CPPTQFCD
modifications: N-terminal hexanoyl (Hex); Cys1 and Cys7 cyclised through tMeBn carrying GaDOTA-PP (gallium complex); C-terminal amide
B6: Hex-[Cys(tMeBn(InDOTA-AET))-Pro-Pro-Thr-Gln-Phe-Cys]-OH (3BP-3623) (peptide)
peptide: CPPTQFC
modifications: N-terminal hexanoyl (Hex); Cys1 and Cys7 cyclised through tMeBn carrying InDOTA-AET (indium complex); free C-terminal acid (-OH)
B7: Hex-[Cys(tMeBn(DOTA-AET))-Pro-Pro-Thr-Gln-Phe-Cys]-OH (3BP-3554) (peptide)
peptide: CPPTQFC
modifications: N-terminal hexanoyl (Hex); Cys1 and Cys7 cyclised through tMeBn carrying DOTA-AET; free C-terminal acid (-OH)
B8: Hex-[Cys(tMeBn(LuDOTA-PP))-Pro-Pro-Thr-Gln-Phe-Cys]-Asp-NH2 (3BP-3591) (peptide)
peptide: CPPTQFCD
modifications: N-terminal hexanoyl (Hex); Cys1 and Cys7 cyclised through tMeBn carrying LuDOTA-PP (lutetium complex); C-terminal amide
B9: Hex-[Cys(tMeBn(EuDOTA-PP))-Pro-Pro-Thr-Gln-Phe-Cys]-Asp-NH2 (3BP-3661) (peptide)
peptide: CPPTQFCD
modifications: N-terminal hexanoyl (Hex); Cys1 and Cys7 cyclised through tMeBn carrying EuDOTA-PP (europium complex); C-terminal amide

Each binder was assayed against Recombinant human FAP (R&D systems, #3715-SE) (human) (assay: SPR (Biacore T200), rhFAP captured by anti-FAP antibody, single cycle kinetics; category A = pKD values >8.0).
Sequence of Recombinant human FAP (R&D systems, #3715-SE) (human) (chain, as listed by the source limits assumed): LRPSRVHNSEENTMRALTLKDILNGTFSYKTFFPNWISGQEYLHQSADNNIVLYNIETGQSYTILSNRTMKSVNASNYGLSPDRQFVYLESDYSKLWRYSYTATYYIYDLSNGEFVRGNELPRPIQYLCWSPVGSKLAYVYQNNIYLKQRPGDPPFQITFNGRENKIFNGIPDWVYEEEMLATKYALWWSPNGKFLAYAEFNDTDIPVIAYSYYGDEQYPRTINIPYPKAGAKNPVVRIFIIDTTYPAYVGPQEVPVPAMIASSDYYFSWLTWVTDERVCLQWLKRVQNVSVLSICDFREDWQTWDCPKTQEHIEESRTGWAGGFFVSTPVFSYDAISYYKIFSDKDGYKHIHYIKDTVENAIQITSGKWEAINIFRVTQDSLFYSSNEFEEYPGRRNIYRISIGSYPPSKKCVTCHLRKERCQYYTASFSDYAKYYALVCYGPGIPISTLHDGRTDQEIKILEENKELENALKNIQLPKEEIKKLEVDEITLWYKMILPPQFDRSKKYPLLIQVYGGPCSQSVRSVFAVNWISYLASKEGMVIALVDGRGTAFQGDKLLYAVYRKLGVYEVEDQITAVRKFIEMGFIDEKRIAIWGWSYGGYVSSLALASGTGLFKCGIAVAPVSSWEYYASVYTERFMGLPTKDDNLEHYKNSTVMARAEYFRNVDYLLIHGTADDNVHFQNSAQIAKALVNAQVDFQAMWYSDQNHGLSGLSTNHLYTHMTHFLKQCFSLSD

Binder | pKD Category [pKD]
B1 | > 8
B2 | > 8
B3 | > 8
B4 | > 8
B5 | > 8
B6 | > 8
B7 | > 8
B8 | > 8

The binders below were run against human fibroblast activation protein (FAP) on human WI-38 fibroblasts (human) (assay: competitive FACS binding on FAP-expressing WI-38 cells against 3 nM Cy5-labeled compound; category A = pIC50 values >8.0).

Binder | pIC50 Category (FACS) [pIC50]
B2 | > 8
B3 | > 8
B9 | > 8
B5 | > 8
B8 | > 8
